Test results taken from patent US20240376185A1 (SMIVET B V, published 2024).
Positions count from the first letter of the chain named.

Experiments:
[1] = biological target: T1, tetanus neurotoxin (TeNT), authentic tetanus holotoxin (Clostridium tetani, UniProt P04958 2-1315); assay: GT1b-TeNT inhibition ELISA, EC at A450 0.59
Target sequence in this assay (P04958 2-457 limits assumed, chain 1 of 2): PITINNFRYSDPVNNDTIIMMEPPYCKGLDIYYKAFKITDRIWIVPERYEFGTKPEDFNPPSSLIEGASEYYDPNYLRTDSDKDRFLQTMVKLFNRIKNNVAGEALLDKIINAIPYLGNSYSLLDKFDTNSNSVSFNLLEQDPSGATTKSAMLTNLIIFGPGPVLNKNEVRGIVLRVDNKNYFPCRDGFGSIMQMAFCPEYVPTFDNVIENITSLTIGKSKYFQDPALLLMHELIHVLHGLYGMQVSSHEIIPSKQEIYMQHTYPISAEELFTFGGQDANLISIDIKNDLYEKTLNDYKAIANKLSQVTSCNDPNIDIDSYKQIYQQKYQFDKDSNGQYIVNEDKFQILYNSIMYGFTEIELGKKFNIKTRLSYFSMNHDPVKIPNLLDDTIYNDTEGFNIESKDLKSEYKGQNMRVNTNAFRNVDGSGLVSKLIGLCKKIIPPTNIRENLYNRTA
Target sequence in this assay (P04958 458-1315 limits assumed, chain 2 of 2): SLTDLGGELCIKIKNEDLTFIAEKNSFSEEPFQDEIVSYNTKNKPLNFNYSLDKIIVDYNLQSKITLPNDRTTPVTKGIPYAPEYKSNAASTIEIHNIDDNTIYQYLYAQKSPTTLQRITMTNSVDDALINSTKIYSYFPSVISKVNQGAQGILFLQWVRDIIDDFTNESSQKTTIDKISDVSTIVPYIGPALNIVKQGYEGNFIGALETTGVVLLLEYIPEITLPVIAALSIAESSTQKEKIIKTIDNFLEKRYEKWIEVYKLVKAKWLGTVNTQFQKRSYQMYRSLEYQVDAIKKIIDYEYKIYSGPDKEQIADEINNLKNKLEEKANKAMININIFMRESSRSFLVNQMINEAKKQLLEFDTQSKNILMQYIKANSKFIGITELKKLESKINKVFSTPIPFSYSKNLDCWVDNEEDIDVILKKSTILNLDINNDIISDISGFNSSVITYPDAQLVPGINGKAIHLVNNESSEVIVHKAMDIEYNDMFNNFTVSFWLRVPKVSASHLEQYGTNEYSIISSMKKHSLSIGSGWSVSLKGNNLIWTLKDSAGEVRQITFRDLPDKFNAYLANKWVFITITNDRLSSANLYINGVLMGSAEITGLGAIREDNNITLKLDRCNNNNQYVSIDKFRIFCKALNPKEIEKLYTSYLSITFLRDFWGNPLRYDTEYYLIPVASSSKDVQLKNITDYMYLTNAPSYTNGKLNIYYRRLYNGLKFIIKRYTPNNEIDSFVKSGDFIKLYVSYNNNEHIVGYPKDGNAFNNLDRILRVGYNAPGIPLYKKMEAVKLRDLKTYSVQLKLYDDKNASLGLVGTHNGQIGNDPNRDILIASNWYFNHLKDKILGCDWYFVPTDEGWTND

[2] = biological target: T1, tetanus neurotoxin (TeNT), authentic …; assay: GT1b-TeNT inhibition ELISA, unlabelled binder
Target sequence in this assay (P04958 2-457 limits assumed, chain 1 of 2): as the sequence (P04958 2-457 limits assumed, chain 1 of 2) above
Target sequence in this assay (P04958 458-1315 limits assumed, chain 2 of 2): as the sequence (P04958 458-1315 limits assumed, chain 2 of 2) above

[3] = biological target: T1, tetanus neurotoxin (TeNT), authentic …; assay: ELISA, directly coated TeNT, unlabelled binder
Target sequence in this assay (P04958 2-457 limits assumed, chain 1 of 2): as the sequence (P04958 2-457 limits assumed, chain 1 of 2) above
Target sequence in this assay (P04958 458-1315 limits assumed, chain 2 of 2): as the sequence (P04958 458-1315 limits assumed, chain 2 of 2) above

[4] = biological target: T2, recombinant tetanus toxin fragment C (rTTC) (Clostridium tetani, UniProt P04958 865-1315); assay: ELISA, directly coated rTTC, unlabelled binder
T2 sequence: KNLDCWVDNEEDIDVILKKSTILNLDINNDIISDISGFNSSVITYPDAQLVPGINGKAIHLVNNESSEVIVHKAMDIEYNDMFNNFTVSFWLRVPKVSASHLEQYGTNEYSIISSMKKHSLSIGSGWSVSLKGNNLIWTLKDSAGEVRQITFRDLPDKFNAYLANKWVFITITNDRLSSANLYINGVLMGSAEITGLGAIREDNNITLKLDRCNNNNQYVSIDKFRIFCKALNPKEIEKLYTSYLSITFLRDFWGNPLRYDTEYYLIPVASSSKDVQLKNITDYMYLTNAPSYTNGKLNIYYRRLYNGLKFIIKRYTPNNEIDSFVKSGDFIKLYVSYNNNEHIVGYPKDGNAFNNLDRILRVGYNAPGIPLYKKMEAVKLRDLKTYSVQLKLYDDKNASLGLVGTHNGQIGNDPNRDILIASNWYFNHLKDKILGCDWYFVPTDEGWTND

[5] = biological target: T1, tetanus neurotoxin (TeNT), authentic …; assay: ELISA, directly coated TeNT, biotinylated binder
Target sequence in this assay (P04958 2-457 limits assumed, chain 1 of 2): as the sequence (P04958 2-457 limits assumed, chain 1 of 2) above
Target sequence in this assay (P04958 458-1315 limits assumed, chain 2 of 2): as the sequence (P04958 458-1315 limits assumed, chain 2 of 2) above

[6] = biological target: T1, tetanus neurotoxin (TeNT), authentic …; assay: ELISA, TeNT captured with cAb-TT2, unlabelled binder
Target sequence in this assay (P04958 2-457 limits assumed, chain 1 of 2): as the sequence (P04958 2-457 limits assumed, chain 1 of 2) above
Target sequence in this assay (P04958 458-1315 limits assumed, chain 2 of 2): as the sequence (P04958 458-1315 limits assumed, chain 2 of 2) above

[7] = biological target: T1, tetanus neurotoxin (TeNT), authentic …; assay: ELISA, TeNT captured with cAb-TT2, biotinylated binder
Target sequence in this assay (P04958 2-457 limits assumed, chain 1 of 2): as the sequence (P04958 2-457 limits assumed, chain 1 of 2) above
Target sequence in this assay (P04958 458-1315 limits assumed, chain 2 of 2): as the sequence (P04958 458-1315 limits assumed, chain 2 of 2) above

[8] = biological target: T1, tetanus neurotoxin (TeNT), authentic …; assay: competition ELISA on TeNT, binder biotinylated; competitor SVT02L
[9] = biological target: T1, tetanus neurotoxin (TeNT), authentic …; assay: competition ELISA on TeNT, binder biotinylated; competitor SVT03L
[10] = biological target: T1, tetanus neurotoxin (TeNT), authentic …; assay: competition ELISA on TeNT, binder biotinylated; competitor SVT06L
[11] = biological target: T1, tetanus neurotoxin (TeNT), authentic …; assay: competition ELISA on TeNT, binder biotinylated; competitor SVT08L
[12] = biological target: T1, tetanus neurotoxin (TeNT), authentic …; assay: competition ELISA on TeNT, binder biotinylated; competitor SVT13L
[13] = biological target: T1, tetanus neurotoxin (TeNT), authentic …; assay: competition ELISA on TeNT, binder biotinylated; competitor SVT15L
[14] = biological target: T1, tetanus neurotoxin (TeNT), authentic …; assay: competition ELISA on TeNT, binder biotinylated; competitor SVT16L
[15] = biological target: T1, tetanus neurotoxin (TeNT), authentic …; assay: competition ELISA on TeNT, binder biotinylated; competitor SVT22L
Target sequence in this assay (P04958 2-457 limits assumed): as the sequence (P04958 2-457 limits assumed, chain 1 of 2) above

[16] = biological target: T1, tetanus neurotoxin (TeNT), authentic …; assay: competition ELISA on TeNT, binder biotinylated; competitor SVT34L
[17] = biological target: T1, tetanus neurotoxin (TeNT), authentic …; assay: competition ELISA on TeNT, binder biotinylated; competitor mAb 6E7
[18] = biological target: T1, tetanus neurotoxin (TeNT), authentic …; assay: competition ELISA on TeNT, binder biotinylated; competitor mAb 14F5
[19] = biological target: T1, tetanus neurotoxin (TeNT), authentic …; assay: competition ELISA on TeNT, binder biotinylated; competitor mAb 6F57
[20] = biological target: T1, tetanus neurotoxin (TeNT), authentic …; assay: competition ELISA on TeNT, binder biotinylated; competitor mAb 11n185
[21] = biological target: T1, tetanus neurotoxin (TeNT), authentic …; assay: competition ELISA on TeNT, binder biotinylated; competitor SVT15L-3FW4M
[22] = biological target: T3, tetanus neurotoxin (TeNT), authentic tetanus holotoxin (Clostridium tetani, UniProt P04958 2-1315); assay: ELISA, directly coated TeNT, E. coli supernatant
[23] = biological target: T4, recombinant tetanus toxin fragment C (rTTC) (Clostridium tetani, UniProt P04958 865-1315); assay: ELISA, directly coated rTTC, E. coli supernatant
T4 sequence: T2 sequence

[24] = biological target: T3, tetanus neurotoxin (TeNT), authentic …; assay: ELISA, cAb-TT2 captured TeNT, E. coli supernatant
[25] = biological target: T3, tetanus neurotoxin (TeNT), authentic …; assay: GT1b-TeNT inhibition ELISA (no SDA: 1.302, 1.257)
[26] = biological target: T5, tetanus neurotoxin (TeNT), authentic tetanus holotoxin (Clostridium tetani, UniProt P04958 2-1315); assay: GT1b-TeNT inhibition ELISA
[27] = biological target: T5, tetanus neurotoxin (TeNT), authentic …; assay: GT1b-TeNT inhibition ELISA; remark: listed apart in the source
[28] = biological target: T5, tetanus neurotoxin (TeNT), authentic …; assay: ELISA: directly coated TeNT, anti-his6 PO
[29] = biological target: T5, tetanus neurotoxin (TeNT), authentic …; assay: ELISA: directly coated TeNT, anti-his6 PO; remark: listed apart in the source
[30] = biological target: T5, tetanus neurotoxin (TeNT), authentic …; assay: ELISA: directly coated TeNT, goat anti-llama Ig PO
[31] = biological target: T5, tetanus neurotoxin (TeNT), authentic …; assay: ELISA: directly coated TeNT, goat anti-llama Ig PO; remark: listed apart in the source
[32] = biological target: T5, tetanus neurotoxin (TeNT), authentic …; assay: bridging ELISA: coated TeNT, SDA, biotinylated TeNT, StrepPO (bivalent binding)
[33] = biological target: T5, tetanus neurotoxin (TeNT), authentic …; assay: as above; remark: listed apart in the source

B1: SVT08L (VHH)
VHH: QVQLQESGGGSVQAGGSLRLSCTASEFSYNDYTIAWFRRAAGKGRVEDGEGVASITTSYDRAYDNRIHYGDSVKGRFTISRDNAKNTVYLQMTNLNPSDTAVYYCGLDITPPGGIGASLTEGFLFDYWGQGTQVTVSS
concentration giving A450 of 0.59 [1]: 0.411 µg/mL
minimal absorbance at 450 nm [2]: 0.486
EC resulting in A450 0.2 [3]: 2.2 ng/mL
maximal absorbance at 450 nm [3]: 1.37
maximal absorbance at 450 nm [4]: 0.502
EC resulting in A450 0.4 [5]: 0.4 ng/mL
maximal absorbance at 450 nm [5]: 1.57
EC resulting in A450 0.15 [6]: 3.6 ng/mL
maximal absorbance at 450 nm [6]: 0.36
EC resulting in A450 0.2 [7]: 0.52 ng/mL
maximal absorbance at 450 nm [7]: 1.2
% inhibition of binding [8]: 7%
% inhibition of binding [9]: 0%
% inhibition of binding [10]: 95%
% inhibition of binding [11]: 96%
% inhibition of binding [12]: 5%
% inhibition of binding [13]: 6%
% inhibition of binding [14]: 8%
% inhibition of binding [15]: 6%
% inhibition of binding [16]: 8%
% inhibition of binding [17]: 66%
% inhibition of binding [18]: 3%
% inhibition of binding [19]: 50%
% inhibition of binding [20]: 4%
% inhibition of binding [21]: 12%

B2: SVT13 (VHH)
VHH: QVQLQESGGGLVQAGGSLRLSCAVSGTNFDDYAIGWFRQAPGKRREAVACISKTDGVTRYGNGVKGRFTISSDEARNTVFLQMNDLKDEDTAIYYCIGDFKSCGMGYKPIDHWGRGIQVTVSS
absorbance at 450 nm [22]: 0.762 A450
absorbance at 450 nm [23]: 0.128 A450
absorbance at 450 nm [24]: 0.165 A450
absorbance at 450 nm [25]: 0.196 A450

B3: SVT22 (VHH)
VHH: QVQLQESGGGLVQAGESLRLSCTASGISFDDYAIGWFRQAPGQQRKGVACISKADGRTDYLGSVKGRFTLSTDNTKNTVHLQMNNLKPEDTALYTCAAEYKSCGMGYKPIDYWGQGMQVTVSS
absorbance at 450 nm [22]: 1.08 A450
absorbance at 450 nm [23]: 0.138 A450
absorbance at 450 nm [24]: 0.299 A450
absorbance at 450 nm [25]: 0.137 A450

B4: SVT15L-3FW4M (VHH)
VHH: QVQLQESGGGLVQTGGSLRLSCRASGRAFANYHFGWFRQAPGKDREFVASISWKGGSTYYANFALGRFTSSVDRAESSVYLQMSGLTPEDTATYYCAAHDGGDWNYHTGMDYWGQGTQVTVSS
minimal absorbance value (GT1b-TeNT inhibition) [26]: 0.19 A450
Effective SDA Concentration at A450 0.56 [27]: 31 ng/mL
maximal absorbance value [28]: 0.19 A450
Effective SDA Concentration at A450 0.15 [29]: 26 ng/mL
maximal absorbance value [30]: 0.35 A450
Effective SDA Concentration at A450 0.15 [31]: 6 ng/mL
maximal absorbance value [32]: 0.2 A450
Effective SDA Concentration at A450 0.3 [33]: > 1000 ng/mL

B5: SVT29 (VHH)
VHH: B4 VHH with R19T, S25Y, A30D, Y60R, D73N, A75G, Q82H, Q115K, T117I, Q118L
absorbance at 450 nm [22]: 1.28 A450
absorbance at 450 nm [23]: 0.111 A450
absorbance at 450 nm [24]: 0.868 A450
absorbance at 450 nm [25]: 0.152 A450

B6: SVT05 (VHH)
VHH: QVQLQESGGGLVQPGGSLRLSCSASGFSFTDDYGIGWFRSGPGKGREAVAPIADREAVAAIALSDGNTYYSASAKGRFTISRDNAKSTAYLQMNNLKPEDTATYYCAADFWGYGMSWPMATLWEYWGQGIQVTVSS
absorbance at 450 nm [22]: 1.04 A450
absorbance at 450 nm [23]: 0.108 A450
absorbance at 450 nm [24]: 0.548 A450
absorbance at 450 nm [25]: 0.985 A450
